Assay results published in patent US20250262167A1, “COMPOUNDS, TARGETS AND PATHWAYS FOR MACROPHAGE MODULATION” (Massachusetts Institute of Technology, priority 2020, published 2025).

Assays:
[1] = test system: human monocyte-derived macrophages (hMDMs); assay: High throughput phenotypic screen of macrophage activation (cell shape, Z-score); format: cell-based; conditions: known M1-/M2-activating stimuli;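 also: phalloidin and DAPI stained hMDMs imaged by high-content microscopy, cell eccentricity compared with DMSO control by T-test, round morphology scored negative, elongated positive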
Protocol: The Z-score was calculated by T-test to measure the difference of cell morphology between treatment and control. Stimuli had negative Z-scores when induced cells to round morphology and positive scores when induced cells to elongated morphology. […] Equally mixed human monocytes isolated from fresh blood of 4 healthy donors were cultured in vitro with 50 ng/mL M-CSF for 7 days. hMDMs were trypsinized and plated on 384-well plates (5000 cells/well in 50 μL). Cells were recovered in 10 ng/mL M-CSF for 16 hrs and then treated with compounds for 24 hrs. Cells were washed, fixed and stained with Phalloidin and DAPI. The plates were scanned with a high-content microscope with six-fields per well to quantify the cell number and cell morphology. […] The cell eccentricity was calculated to measure the cell morphology. The Z-score was calculated by T-test to measure the difference in cell morphologies between each compound and DMSO control.
Cells were treated with a library of over 4000 individual compounds or drugs at the final concentration of 20 μM using the CyBi-Well simultaneous pipettor (CyBio). […] After 24 hr incubation, supernatants were removed using the microplate washer (Bioteck) and cells were fixed by adding 50 μL 16% paraformaldehyde (Thermo Scientific) with the dispenser for 20 minutes. Cells were then washed with 50 μL 1×PBS twice and incubated for 20 minutes with NucBlue and AF746 Phalloidin (Invitrogen) to stain nucleus and cytoskeleton. Cells were then washed with 50 μL 1×PBS twice and maintained in PBS for the image acquirement. Plates were read in the Opera Phenix high content screening system (PerkinElmer) to photograph cells using 20× objective in 2 fluorescent channels (Blue and FarRed). A total of 6 different fields in each well and an average of 1,000 cells were imaged per well. CellProfiler was used to identify each cell by overlapping signals from its nucleus and cytoskeleton, and calculate the eccentricity as the parameter to measure the cell morphology. The Z-score was calculated by T-test to measure the difference of cell morphology between each treatment and control. For each row of the 384-well plate, total 4 wells with first and last two columns treated with the same concentration of DMSO were combined as the control for the other 20 treatment wells in that row. In the meantime, classic M1 and M2 stimuli were added to generate the gold-standard Z-score cutoffs with M1 or M2 activation. Classic M1 stimuli include LPS (100 ng/mL), IFNγ (50 ng/mL, Peprotech), TNFα (50 ng/mL, Peprotech), or IFNγ plus TNFα. Classic M2 stimuli include IL-10 (10 ng/mL, Peprotech), IL-4 (10 ng/mL, Peprotech), or IL-13 (5 ng/mL, Peprotech).

[2] = test system: hMDMs; assay: RNA-seq transcriptional response of hMDMs (GSEA, GO enrichment); format: cell-based, human; conditions: hMDMs, 24 hrs, GSEA
Protocol: Duplicate hMDM samples were treated with 2 M2-activating and 6 M1-activating compounds as well as IL-4 and IFNγ for 24 hrs. Gene expression levels were measured by RNA-seq separately. GSEA preranked analysis was performed based on the whole genome gene list ranked on gene expression changes using a gene set of 49 transcriptional modules in response to 29 stimuli in hMDMs. bosut.: bosutinib; alster.: alsterpaullone; mocet.: mocetinostat; thios.: thiostrepton; niclo.: niclosamide; chlor.: chlorhexidine; fenb.: fenbendazole; fluvo.: fluvoxamine. […] Duplicate hMDM samples were stimulated with each ligand and analyzed by RNA-seq separately.
DEGs were identified by edgeR at P<0.05 with at least 2 fold-change.
RNAs were extracted with RNeasy MiniElute kit (Qiagen), converted into cDNA and sequenced using Next-Generation Sequencing (Illumina). […] Differential expression analysis was performed using the program edgeR at P<0.05 with a 2 fold-change. The gene expression level across different samples was normalized and quantified using the function of cpm. Differentially expressed genes were annotated using online functional enrichment analysis tool DAVID (http://david.ncifcrf.gov/). Gene set enrichment analysis were performed with GSEA with FDR q-value<0.05.
Fresh hMDMs were treated with compounds at the EC for 24 hours, followed by RNA-seq.

[3] = test system: hMDMs; assay: Flow cytometry of M1 markers (CD80, CD86) and M2 markers (CD206, CD163) in hMDMs; format: cell-based, human; conditions: 24 hrs
Protocol: FIGS. 7A-7B show morphology and phenotypes of activated macrophages. […] The resulting macrophages were polarized to M1 by IFNγ or M2 by IL4. Then, M1 macrophages were treated with M2-type compound bosutinib ([…]) for 24 hrs, and M2 macrophages were treated with M1-type compound thiostrepton ([…]) for 24 hrs. F-actin was stained and images were acquired by fluorescent microscopy with 60× objective. Cell nuclei are stained with DAPI. Representative data were shown from two independent experiments. […] Shown are the representative staining profiles from three independent experiments. The numbers show mean fluorescent intensity (MFI)+/−standard error of the mean (SEM) for n=3 samples per group.
FIGS. 9A-9C show comparison of the differentially expressed genes induced by selected compounds (FIG. 9A), ligands for novel pathways (FIG. 9B), and controls (IL-4 and IFNγ). […] Shown are the changes of the relative mean fluorescence intensity (MFI) to controls. 0.2 refers to 20% MFI increase.
B6 mice were purchased from the Jackson Laboratory and maintained in the animal facility at the Massachusetts Institute of Technology (MIT). NSG mice were purchased from the Jackson Laboratory and maintained under specific pathogen-free conditions in the animal facilities at MIT. […] The data were analyzed by FlowJo. […]

B1: IL10: classic M2 stimulus (protein, UniProt P22301 19-178, looked up)
Interleukin-10: SPGQGTQSENSCTHFPGNLPNMLRDLRDAFSRVKTFFQMKDQLDNLLLKESLLEDFKGYLGCQALSEMIQFYLEEVMPQAENQDPDIKAHVNSLGENLKTLRLRLRRCHRFLPCENKSKAVEQVKNAFNKLQEKGIYKAMSEFDIFINYIEAYMTMKIRN
[1]
  cell shape induced: elongated cell shape

B2: EGF: ligand of novel pathway (protein, UniProt P01133 23-1207, looked up)
Pro-epidermal growth factor: PQHWSCPEGTLAGNGNSTCVGPAPFLIFSHGNSIFRIDTEGTNYEQLVVDAGVSVIMDFHYNEKRIYWVDLERQLLQRVFLNGSRQERVCNIEKNVSGMAINWINEEVIWSNQQEGIITVTDMKGNNSHILLSALKYPANVAVDPVERFIFWSSEVAGSLYRADLDGVGVKALLETSEKITAVSLDVLDKRLFWIQYNREGSNSLICSCDYDGGSVHISKHPTQHNLFAMSLFGDRIFYSTWKMKTIWIANKHTGKDMVRINLHSSFVPLGELKVVHPLAQPKAEDDTWEPEQKLCKLRKGNCSSTVCGQDLQSHLCMCAEGYALSRDRKYCEDVNECAFWNHGCTLGCKNTPGSYYCTCPVGFVLLPDGKRCHQLVSCPRNVSECSHDCVLTSEGPLCFCPEGSVLERDGKTCSGCSSPDNGGCSQLCVPLSPVSWECDCFPGYDLQLDEKSCAASGPQPFLLFANSQDIRHMHFDGTDYGTLLSQQMGMVYALDHDPVENKIYFAHTALKWIERANMDGSQRERLIEEGVDVPEGLAVDWIGRRFYWTDRGKSLIGRSDLNGKRSKIITKENISQPRGIAVHPMAKRLFWTDTGINPRIESSSLQGLGRLVIASSDLIWPSGITIDFLTDKLYWCDAKQSVIEMANLDGSKRRRLTQNDVGHPFAVAVFEDYVWFSDWAMPSVMRVNKRTGKDRVRLQGSMLKPSSLVVVHPLAKPGADPCLYQNGGCEHICKKRLGTAWCSCREGFMKASDGKTCLALDGHQLLAGGEVDLKNQVTPLDILSKTRVSEDNITESQHMLVAEIMVSDQDDCAPVGCSMYARCISEGEDATCQCLKGFAGDGKLCSDIDECEMGVPVCPPASSKCINTEGGYVCRCSEGYQGDGIHCLDIDECQLGEHSCGENASCTNTEGGYTCMCAGRLSEPGLICPDSTPPPHLREDDHHYSVRNSDSECPLSHDGYCLHDGVCMYIEALDKYACNCVVGYIGERCQYRDLKWWELRHAGHGQQQKVIVVAVCVVVLVMLLLLSLWGAHYYRTQKLLSKNPKNPYEESSRDVRSRRPADTEDGMSSCPQPWFVVIKEHQDLKNGGQPVAGEDGQAADGSMQPTSWRQEPQLCGMGTEQGCWIPVSSDKGSCPQVMERSFHMPSYGTQTLEGGVEKPHSLLSANPLWQQRALDPPHQMELTQ
modifications: Pro-epidermal growth factor
notes: ligand of novel pathway
[2]
  gene expression of TPP modules (#30, #32): down-regulated
  gene expression of typical M1 modules (#7, #8): up-regulated

B3: IL-4: classic M2 stimulus (protein, UniProt P05112 25-153, looked up)
Interleukin-4: HKCDITLQEIIKTLNSLTEQKTLCTELTVTDIFAASKNTTEKETFCRAATVLRQFYSHHEKDTRCLGATAQQFHRHKQLIRFLKRLDRNLWGLAGLNSCPVKEANQSTLENFLERLKTIMREKYSKCSS
[1]
  cell shape induced: elongated cell shape
[3]
  expression of M1 markers CD80 and CD86: suppressed
  expression of M2 markers CD206 and CD163: up-regulated
